How the values were obtained:
[1] = target: recombinant mouse TfR1 (transferrin receptor 1) (mouse) (UniProt Q62351); assay: Octet, mouse TfR1 on anti-His biosensors, analyte 10 nM, PBS pH 6.0
[2] = target: recombinant mouse TfR1 (transferrin receptor 1) (mouse) (UniProt Q62351); assay: Octet, mouse TfR1 on anti-His biosensors, analyte 10 nM, PBS pH 7.2
[3] = target: recombinant mouse TfR1 (transferrin receptor 1) (mouse) (UniProt Q62351); assay: Octet, mouse TfR1 immobilised on biosensors; row buffer (no first antibody), column 8D3

recombinant mouse TfR1 (transferrin receptor 1) (mouse), sequence (Q62351 89-763 limits assumed): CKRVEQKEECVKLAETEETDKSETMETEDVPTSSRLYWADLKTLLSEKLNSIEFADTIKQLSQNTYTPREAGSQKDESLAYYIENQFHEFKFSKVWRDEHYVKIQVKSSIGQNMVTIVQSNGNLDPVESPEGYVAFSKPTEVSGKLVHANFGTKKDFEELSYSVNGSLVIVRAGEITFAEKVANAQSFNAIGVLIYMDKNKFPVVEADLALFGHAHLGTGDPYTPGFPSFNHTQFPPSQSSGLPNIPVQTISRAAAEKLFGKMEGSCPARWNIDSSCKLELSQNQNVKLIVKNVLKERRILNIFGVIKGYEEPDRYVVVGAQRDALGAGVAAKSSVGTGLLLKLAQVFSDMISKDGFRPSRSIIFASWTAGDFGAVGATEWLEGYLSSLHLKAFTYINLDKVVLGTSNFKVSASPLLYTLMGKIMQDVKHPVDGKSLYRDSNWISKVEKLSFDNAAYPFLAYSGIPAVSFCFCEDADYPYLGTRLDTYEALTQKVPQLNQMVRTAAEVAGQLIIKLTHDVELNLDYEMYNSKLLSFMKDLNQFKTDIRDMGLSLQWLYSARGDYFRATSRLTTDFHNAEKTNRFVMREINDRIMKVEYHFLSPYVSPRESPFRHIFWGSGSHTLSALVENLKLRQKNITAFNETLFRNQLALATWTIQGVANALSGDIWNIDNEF

B1: 8D3 monoclonal antibody to mouse TfR (antibody, from another filing, V domains shown)
VH: EVQLVESGGGLVQPGNSLTLSCVASGFTFSNYGMHWIRQAPKKGLEWIAMIYYDSSKMNYADTVKGRFTISRDNSKNTLYLEMNSLRSEDTAMYYCAVPTSHYVVDVWGQGVSVTVSS
VL: DIQMTQSPASLSASLEEIVTITCQASQDIGNWLAWYQQKPGKSPQLLIYGATSLADGVPSRFSGSRSGTQFSLKISRVQVEDIGIYYCLQAYNTPWTFGGGTKLELK
In the case of B1, the Kd [1] is reported as 0.247 nM, the koff [1] is reported as 0.000126 s⁻¹ and the kon [1] is reported as 511000 M⁻¹ s⁻¹. The Kd [2] was 0.221 nM, the koff [2] was 0.000131 s⁻¹ and the kon [2] was 591000 M⁻¹ s⁻¹. It also gave an Octet signal as second antibody after buffer [3] of 0.33.
